For data set [1], the system named is NIH3T3 cells. The experiment in a line: cells. The format is cell-based, mouse. Here is the method:
NIH3T3 cells were added to 50 μL of DMEM supplemented with 10% FBS and 1% penicillin/streptomycin, placed in a 96-well plate (CLS3595, Corning) and incubated overnight in 5% CO2 at 37° C. incubator. In each well containing 50 μL of cells, 50 μL of 50 anti-PDGFR-β x cotinine scFv-Cκ-scFv fusion protein (25.6 pM-2 μM) complexed with cot-duo or cot-duo-cot obtained in Experimental Example 10 was added and incubated for 72 hours in 5% CO2 at 37° C. incubator. To test mPDGF-BB on the toxic effect of the bispecific antibody of scFv-Cκ-scFv and the cotinine-duocarmycin complex, mPDGF-BB (2 nM) was added together with 50 μL of the bispecific antibody scFv-Cκ-scFv and the cotinine-duocarmycin complex. The mixed complexes were added to 50 μL of NIH3T3 cells.
The bispecific antibody of anti-HER2 x cotinine scFv-Cκ-scFv was used as a control. After 72 hours of incubation in the cells, 100 μL of Cell Titer-Glo reagents (Promega Corp., Madison, WI, USA) were added to all wells according to the manufacturer's instructions, and luminescence was measured in a luminometer (PerkinElmer, Waltham, MA, USA). The experiment was repeated 3 times. Relative viability was calculated with the following formula: [% viability=(luminescence of experimental well-luminescence of background well)/(luminescence of control-luminescence of background well)×100]. The wells containing only new medium were used as background wells.
To evaluate the toxicity of the complex of anti-mPDGFR-B x cotinine scFv-Cκ-scFv bispecific antibodies and cotinine duocarmycin (cot-duo, cot-duo-cot), the complexes were added to NIH3T3 cells in the presence/absence of mPDGF-BB. The ATP of the cells was measured for relative cell viability. The toxicity of the bispecific antibody of scFv-Cκ-scFv fusion antibody was shown by IC50 in Table 6 and FIG. 5.
It was carried out in the same manner as in Example 7, except that the bispecific antibody related with the anti-mPDGFR-β antibody and the bispecific antibody related with the anti-hPDGFR-β antibody prepared in Example 10 were used. FIG. 20a to FIG. 20b are graphs showing the difference in cytotoxic activity of PRb-CN01 and PRb-CN32 bispecific antibodies and cotinine-duocarmycin complexes in the cells expressing PDGFR-β. In FIG. 20b, an experiment was repeated in the presence of mPDGF-BB.

The target in data set [2] is T1, NIH3T3 cells expressing mPDGFR-β (Mus musculus, UniProt P05622).
T1 construct: host or cells: NIH3T3
T1 sequence (P05622 32-1098): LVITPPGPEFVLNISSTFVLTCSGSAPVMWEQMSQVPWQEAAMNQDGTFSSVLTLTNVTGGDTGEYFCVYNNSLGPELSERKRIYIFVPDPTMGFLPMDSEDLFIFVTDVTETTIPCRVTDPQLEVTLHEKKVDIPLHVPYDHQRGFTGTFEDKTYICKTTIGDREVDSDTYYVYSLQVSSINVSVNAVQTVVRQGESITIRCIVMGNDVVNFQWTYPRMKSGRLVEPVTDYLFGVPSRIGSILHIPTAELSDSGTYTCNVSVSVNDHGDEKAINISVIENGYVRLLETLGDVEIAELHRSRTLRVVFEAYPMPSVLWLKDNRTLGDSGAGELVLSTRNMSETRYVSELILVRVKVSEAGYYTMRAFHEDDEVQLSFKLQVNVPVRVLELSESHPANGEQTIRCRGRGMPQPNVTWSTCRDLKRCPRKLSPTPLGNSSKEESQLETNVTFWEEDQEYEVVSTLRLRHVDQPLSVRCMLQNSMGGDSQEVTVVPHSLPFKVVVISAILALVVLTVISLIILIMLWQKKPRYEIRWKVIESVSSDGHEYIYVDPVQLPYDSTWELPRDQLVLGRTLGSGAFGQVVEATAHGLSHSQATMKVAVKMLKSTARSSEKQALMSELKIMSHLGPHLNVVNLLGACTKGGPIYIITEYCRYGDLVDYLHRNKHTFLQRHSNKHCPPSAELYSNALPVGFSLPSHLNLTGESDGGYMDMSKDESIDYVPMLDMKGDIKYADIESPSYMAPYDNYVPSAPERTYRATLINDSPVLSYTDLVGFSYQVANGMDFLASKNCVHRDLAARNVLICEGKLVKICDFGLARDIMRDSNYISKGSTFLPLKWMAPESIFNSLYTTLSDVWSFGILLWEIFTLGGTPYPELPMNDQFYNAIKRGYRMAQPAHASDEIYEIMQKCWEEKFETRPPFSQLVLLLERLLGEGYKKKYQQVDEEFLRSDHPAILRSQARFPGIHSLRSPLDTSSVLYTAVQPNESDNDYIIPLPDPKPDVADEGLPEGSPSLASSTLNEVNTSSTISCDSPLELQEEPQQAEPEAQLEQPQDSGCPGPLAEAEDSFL
Put plainly: Flow cytometry binding to NIH3T3 cells expressing mPDGFR-β. The conditions noted are these: for binding to NIH3T3 cells: 100 nM, FIG. 18. As for the experimental part: mPDGF-BB was biotinylated using a biotin-xx microscale protein labeling kit (Invitrogen) according to the manufacturer's instructions. NIH3T3 cells were cultured at 4° C. for 1 hour using the bispecific antibody of scFv-Cκ-scFv fusion protein (100 nM) under two different conditions with or without mPDGF-BB-biotin (100 nM). The cells were washed 4 times with flow cytometry buffer and cultured with allophycocyanin (APC)-anti-human Cκ antibody (clone TB28-2; BD Biosciences, San Jose, CA, USA) and streptavidin-phycoerythrin (PE) (12-4317-87; eBioscience, ThermoFisher). After washing, it was classified and analyzed with a FACS Canto II instrument (BD Biosciences, San Jose, CA, USA). 10,000 cells were used for each measurement, and the results were analyzed by FlowJo (Tree Star, Ashland, OR, USA). […] The binding ability of the other three clones was inhibited by mPDGF-BB.
Specifically, the bispecific antibody scFv-Cκ-scFv fusion protein (100 nM) in flow cytometry buffer was cultured on NIH3T3 cells expressing mPDGFR-β. The cells were treated with APC-anti human Cκ antibody. The bispecific antibody anti-HER2 x cotinine scFv-Cκ-scFv fusion protein was used as a negative control.

The target in data set [3] is T1, NIH3T3 cells expressing mPDGFR-β. The experiment in a line: Flow cytometry competition against PRb-CN01-rabbit Fc on NIH3T3 cells. Type of data set: binding. The conditions noted are these: PRb-CN01-rabbit Fc 50 nM, competitor 1 μM, FIG. 19b. Here is the method: According to the same manner as in Example 5, PRb-CN01-rabbit Fc (50 nM) and PRb-CN01, control antibody, PRb-CN32 bispecific antibody scFv-Cκ-scFv (1 μM) were cultured on NIH3T3 cells for 1 hour. After washing, it was reacted with FITC-anti rabbit Fc antibody (172-1506, KPL, Gaithersburg, Maryland, USA) at 4° C. for 1 hour. After washing, it was classified and analyzed with a FACS Canto II instrument (BD Biosciences, San Jose, CA, USA). 10,000 cells were identified for each measurement. The results were analyzed by FlowJo (Tree Star, Ashland, OR, USA) (FIG. 19b).
(Flow cytometry measures light scatter and fluorescence of single cells or particles in a stream.)

For data set [4], the system named is neovascularization. The experiment in a line: Laser-induced choroidal neovascularization animal model. Type of data set: in vivo, mice. As to conditions: complex with cot-duo; 1 uL into the vitreous cavity, 10 nM; FIG. 10. As for the experimental part: After anesthetizing the mice, the retina of the mouse was irradiated with an indirect ophthalmoscope system (ILOODA) laser in a 300 um spot size with 400 mW intensity, 50 ms duration, and 810 nm wavelength to induce destruction of Bruch's membrane.
After 4 days of laser irradiation, 1 uL of each bispecific antibody scFv-Cκ-scFv, and complex of the bispecific antibody scFv-Cκ-scFv fusion protein and the cot-duo was injected into the vitreous cavity at a concentration of 10 nM. After 7 days of laser irradiation, the eyes were removed to obtain retinal pigment epithelial-choroid-scleral tissue, and immunofluorescence staining was performed with isolectin B4 antibody conjugated to Alexa Fluor 594 to determine the extent of the choroidal neovascular membrane. The neovascularization inhibition ability of the scFv-Cκ-scFv fusion protein and the cot-duo complex was confirmed. To quantitatively analyze the extent of the choroidal neovascular membrane, the ImageJ program (NIH) was used.

Data on 2 molecules can be found in patent US12098206B2, “PDGF receptor antibody and use thereof” (Seoul National University R&DB Foundation, priority 2018, dated 2024).

B1: PRb-CN32: anti-hPDGFR-β scFv clone (VH SEQ ID NO 47, VL SEQ ID NO 48), tested as scFv-Cκ-anti-cotinine scFv bispecific antibody (antibody, V domains shown)
VH: AVTLDESGGGLQTPRGTLSLVCKASGFTFSSFNMFWVRQAPGKGLEFVAGISTTGRYTGYGSAVQGRGTISRDNGQSTVRLQLNNLRAEDTGTYYCAKSAGSTYSYWDSDAGLIDAWGHGTEVIVSSTS
VL: LTQPSSVSANLGETVKITCSGGSNAGSYYYGWYQQKSPGSAPVTVIYSNNQRPSDIPSRFSGSTSGSTSTLTITGVQVDDEAVYFCGSGDSSSIAAFGAGTTLTVL
modifications: VH of PRb-CN32; VL of PRb-CN32
B1: in data set [1], the “cytotoxicity of complex with cotinine-duocarmycin, PRb-CN01 versus PRb-CN32” value is reported as “equivalent cytotoxicity regardless of the presence/absence of mPDGF-BB”. Besides, the “binding to NIH3T3 cells” value in data set [2] was “bound to NIH3T3 cells”. Besides, the “inhibition of binding of PRb-CN01-rabbit Fc to mPDGFR-β on the cell surface” value in data set [3] is given as “inhibited”.

B2: PRb-CN01: anti-mPDGFR-β chicken scFv clone (VH SEQ ID NO 7, VL SEQ ID NO 8), tested as scFv-Cκ-anti-cotinine scFv bispecific antibody (antibody, V domains shown)
VH: AVTLDESGGGLQTPGGALSLVCKASGFTFSDRAMHWVRQAPGKGLEWVGLITNTGGSTNYGAAVKGRATISRDNGQSTVRLQLNNLRAEDTGTYYCTRGVGSWAHGGRIDAWGHGTEVIVSS
VL: LTQPSSVSANPGETVKITCSGGSGSYGWFQQKSPGSAPVTVIYSNNQRPSDIPSRFSGSKSGSTNTLTITGVQAEDEAIYYCGTRDSSYVGIFGAGTTLTVL
modifications: VH of PRb-CN01; VL of PRb-CN01
As for B2, the “cytotoxicity of complex with cotinine-duocarmycin, PRb-CN01 versus PRb-CN32” value in data set [1] is reported as “equivalent cytotoxicity regardless of the presence/absence of mPDGF-BB”. Further, the “toxicity with the addition of mPDGF-BB” value in data set [1] (complex with cot-duo or cot-duo-cot, NIH3T3, FIG. 5) is on record as “also high with the addition of mPDGF-BB”. Moreover, the “toxicity compared to control anti-HER2 x cotinine scFv-Cκ-scFv” value in data set [1] (complex with cotinine-duocarmycin, NIH3T3, with or without mPDGF-BB, FIG. 5) is listed as “highest toxicity”. For the same molecule, the “toxicity compared to free duocarmycin” value in data set [1] (cotinine-duocarmycin complexed with antibody, in the presence of mPDGF-BB, p<0.01) is recorded as “significantly more toxic than free duocarmycin”. The “cell binding in the presence of mPDGF-BB-biotin” value in data set [2] (100 nM antibody, mPDGF-BB-biotin 100 nM, FIG. 4b) is recorded as “bound to PDGFR-β present on the cell surface”. In data set [2], the “binding to NIH3T3 cells” value is “bound to NIH3T3 cells”. Further, the inhibition of neovascularization entry in data set [4] is “inhibited neovascularization”. Moreover, in data set [3], the “inhibition of binding of PRb-CN01-rabbit Fc to mPDGFR-β on the cell surface” value is given as “inhibited”.
